In this data set the target is cardiac troponin T (cTn-T) (UniProt P45379). Briefly: electrochemical aptasensor. The note with it: thiol (end not stated); Protein in 10 mM PBS pH 7.4, 30 min on BSA-blocked electrode, PBS wash; read in 0.10 M KCl with 5.0 mM K3/K4[Fe(CN)6]; temperature not stated.

On to “CGTGCAGTACGCCAACCTTTCTCATGCGCTGCCCCTCTTA [cTn-I aptamer (Jo et al.)]”, for which the binding signal (% normalized response) is less than 5.

The values above are taken from article PMC9599711.
